This note sets out measurements from FireProtDB (doi:10.1006/jmbi.2000.3958).

The labels stand for the following.
B1: Cyclin-dependent kinases regulatory subunit, P08463 (parent)
chain: MSKSGVPRLLTASERERLEPFIDQIHYSPRYADDEYEYRHVMLPKAMLKAIPTDYFNPETGTLRILQEEEWRGLGITQSLGWEMYEVHVPEPHILLFKREKDYQMKFSQQRGG

The variants in the data set derive from B1. Conditions: Schizosaccharomyces pombe (strain 972 / ATCC 24843); pH 7.5; 25 °C; Urea; Fluorescence; Tris 50 mM; structure 1SCE; whole UniProt chain shown.

On to MSKSGVPRLLTASERERLEPFIDQIHYSPRYADDEYEYRHVMLPKAMLKAIPTDYFNPETGTLRILQEEEWRGLGITQSLGWEMYEVHVGEPHILLFKREKDYQMKFSQQRGG [P90G], for which the “ddG of mutation (higher = less stable)” value was -1.33 kcal/mol, the denaturant m value is 1.53 kcal/mol/M and the “denaturant midpoint (higher = more stable)” value (shortened to “denaturant midpoint”) came out at 5.25 M.
For MSKSGVARLLTASERERLEPFIDQIHYSPRYADDEYEYRHVMLPKAMLKAIPTDYFNPETGTLRILQEEEWRGLGITQSLGWEMYEVHVPEPHILLFKREKDYQMKFSQQRGG [P7A] the same measures were 0.2 kcal/mol, 1.57 kcal/mol/M and 4.29 M.
The matching figures for MSKSGVPRLLTASERERLEPFIDQIHYSPRYADDEYEYRHVMLPKAMLKAIPTDYFNPETGTLRILQEEEWRGLGITQSLGWEMYEVHVPEGHILLFKREKDYQMKFSQQRGG [P92G]: -0.07 kcal/mol, 1.55 kcal/mol/M and 4.46 M.
For MSKSGVPRLLTASERERLEPFIDQIHYSPRYADDEYEYRHVMLPKAMLKAIPTDYFNPETGTLRILQEEEWRGLGITQSLGWEMYEVHVPEAHILLFKREKDYQMKFSQQRGG [P92A] the same measures were -0.07 kcal/mol, 1.78 kcal/mol/M and 4.46 M.
Take MSKSGVPRLLTASERERLEPFIDQIHYSPRYADDEYEYRHVMLAKAMLKAIPTDYFNPETGTLRILQEEEWRGLGITQSLGWEMYEVHVPEPHILLFKREKDYQMKFSQQRGG [P44A]: the “ddG of mutation (higher = less stable)” value was determined as 3.04 kcal/mol, the denaturant m value came to 1.56 kcal/mol/M and the “denaturant midpoint” value was 2.52 M.
For MSKSGVPRLLTASERERLEPFIDQIHYAPRYADDEYEYRHVMLPKAMLKAIPTDYFNPETGTLRILQEEEWRGLGITQSLGWEMYEVHVPEPHILLFKREKDYQMKFSQQRGG [S28A] the same measures were 0.34 kcal/mol, 1.61 kcal/mol/M and 4.21 M.
For MSKSGVPRLLTASERERLEPFIDQIHYGPRYADDEYEYRHVMLPKAMLKAIPTDYFNPETGTLRILQEEEWRGLGITQSLGWEMYEVHVPEPHILLFKREKDYQMKFSQQRGG [S28G] the same measures were -0.89 kcal/mol, 1.62 kcal/mol/M and 4.98 M.
For MSKSGVPRLLTASERERLEPFIDQIHYSPRYADDEYEYRHVMLPKAMLKAIPTDYFNPETGTLRILQEEEWRGLGITQSLGWEMYEVHVGEGHILLFKREKDYQMKFSQQRGG [P90G P92G] the same measures were -0.88 kcal/mol, 1.46 kcal/mol/M and 4.97 M.
On to MSKSGVPRLLTASERERLEPFIDQIHYSPRYADDEYEYRHVMLPKAMLKAIPTDYFNPETGTLRILQEEEWRGLGITQSLGWEMYEVHVAEAHILLFKREKDYQMKFSQQRGG [P90A P92A], for which the “ddG of mutation (higher = less stable)” value was -0.93 kcal/mol, the denaturant m value amounted to 1.4 kcal/mol/M and the “denaturant midpoint” value was 5 M.
For MSKSGVPRLLTASERERLEPFIDQIHYSPRYADDEYEYRHVMLPKAMLKAIPTDYFNPETGTLRILQEEEWRGLGITQSLGWEMYEVHAPEPHILLFKREKDYQMKFSQQRGG [V89A] the same measures were 0.24 kcal/mol, 1.6 kcal/mol/M and 4.27 M.
For MSKSGVPRLLTASERERLEPFIDQIHYSPRYADDEYEYRHVMLPKAMLKAIPTDYFNPETGTLRILQEEEWRGLGITQSLGWEMYEVHGPEPHILLFKREKDYQMKFSQQRGG [V89G] the same measures were -0.81 kcal/mol, 1.63 kcal/mol/M and 4.93 M.
For MSKSGVPRLLTASERERLEAFIDQIHYSPRYADDEYEYRHVMLPKAMLKAIPTDYFNPETGTLRILQEEEWRGLGITQSLGWEMYEVHVPEPHILLFKREKDYQMKFSQQRGG [P20A], the “ddG of mutation (higher = less stable)” value was found to be 0.3 kcal/mol, the denaturant m value amounted to 1.5 kcal/mol/M and the “denaturant midpoint” value came to 4.23 M.
For MSKSGVPRLLTASERERLEPFIDQIHYSPRYADDEYEYRHVMLPKAMLKAIATDYFNPETGTLRILQEEEWRGLGITQSLGWEMYEVHVPEPHILLFKREKDYQMKFSQQRGG [P52A] the same measures were 2.57 kcal/mol, 1.75 kcal/mol/M and 2.81 M.
For MSKSGVPRLLTASERERLEPFIDQIHYSARYADDEYEYRHVMLPKAMLKAIPTDYFNPETGTLRILQEEEWRGLGITQSLGWEMYEVHVPEPHILLFKREKDYQMKFSQQRGG [P29A] the same measures were -0.23 kcal/mol, 1.39 kcal/mol/M and 4.56 M.
